# Measurements from patent US20240182953, “METHODS AND COMPOSITIONS FOR DETECTING A TARGET RNA” (The Regents of the University of California, published 2024).
# T1: LbuC2c2-dHEPN1/dHEPN2 (Leptotrichia buccalis, UniProt C7NBY4 SEQ:1-1159, R472A,H477A,R1048A,H1053A)
# T1 sequence: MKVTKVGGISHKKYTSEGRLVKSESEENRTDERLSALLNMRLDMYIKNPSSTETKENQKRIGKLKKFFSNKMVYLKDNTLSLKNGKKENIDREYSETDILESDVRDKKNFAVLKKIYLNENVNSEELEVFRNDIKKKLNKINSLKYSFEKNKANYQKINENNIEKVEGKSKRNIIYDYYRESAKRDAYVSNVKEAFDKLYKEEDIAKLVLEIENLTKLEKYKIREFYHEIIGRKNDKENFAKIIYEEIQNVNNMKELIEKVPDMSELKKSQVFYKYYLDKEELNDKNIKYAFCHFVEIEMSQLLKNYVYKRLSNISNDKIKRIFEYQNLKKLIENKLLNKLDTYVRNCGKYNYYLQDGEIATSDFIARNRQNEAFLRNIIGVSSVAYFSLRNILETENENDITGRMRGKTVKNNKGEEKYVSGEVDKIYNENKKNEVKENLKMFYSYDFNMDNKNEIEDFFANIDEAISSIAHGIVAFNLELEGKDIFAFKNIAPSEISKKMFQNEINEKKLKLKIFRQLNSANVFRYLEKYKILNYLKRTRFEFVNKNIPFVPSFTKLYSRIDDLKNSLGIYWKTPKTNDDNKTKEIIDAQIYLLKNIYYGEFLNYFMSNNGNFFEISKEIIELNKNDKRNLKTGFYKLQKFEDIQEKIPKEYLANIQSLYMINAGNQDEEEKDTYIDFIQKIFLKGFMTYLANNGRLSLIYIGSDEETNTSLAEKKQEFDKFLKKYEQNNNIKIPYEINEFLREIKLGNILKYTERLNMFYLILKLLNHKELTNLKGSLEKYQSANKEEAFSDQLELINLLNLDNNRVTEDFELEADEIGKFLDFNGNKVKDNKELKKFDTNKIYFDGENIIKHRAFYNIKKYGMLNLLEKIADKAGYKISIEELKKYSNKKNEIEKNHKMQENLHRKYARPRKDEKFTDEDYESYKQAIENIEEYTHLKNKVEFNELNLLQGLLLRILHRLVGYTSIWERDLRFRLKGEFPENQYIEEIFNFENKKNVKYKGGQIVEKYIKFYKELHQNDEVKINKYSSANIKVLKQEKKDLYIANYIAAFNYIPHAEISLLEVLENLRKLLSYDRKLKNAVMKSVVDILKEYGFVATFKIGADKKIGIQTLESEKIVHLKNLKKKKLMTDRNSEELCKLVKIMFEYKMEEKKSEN
# T2: LbuC2c2-R1079A (Leptotrichia buccalis, UniProt C7NBY4 SEQ:1-1159, R1079A)
# T2 sequence: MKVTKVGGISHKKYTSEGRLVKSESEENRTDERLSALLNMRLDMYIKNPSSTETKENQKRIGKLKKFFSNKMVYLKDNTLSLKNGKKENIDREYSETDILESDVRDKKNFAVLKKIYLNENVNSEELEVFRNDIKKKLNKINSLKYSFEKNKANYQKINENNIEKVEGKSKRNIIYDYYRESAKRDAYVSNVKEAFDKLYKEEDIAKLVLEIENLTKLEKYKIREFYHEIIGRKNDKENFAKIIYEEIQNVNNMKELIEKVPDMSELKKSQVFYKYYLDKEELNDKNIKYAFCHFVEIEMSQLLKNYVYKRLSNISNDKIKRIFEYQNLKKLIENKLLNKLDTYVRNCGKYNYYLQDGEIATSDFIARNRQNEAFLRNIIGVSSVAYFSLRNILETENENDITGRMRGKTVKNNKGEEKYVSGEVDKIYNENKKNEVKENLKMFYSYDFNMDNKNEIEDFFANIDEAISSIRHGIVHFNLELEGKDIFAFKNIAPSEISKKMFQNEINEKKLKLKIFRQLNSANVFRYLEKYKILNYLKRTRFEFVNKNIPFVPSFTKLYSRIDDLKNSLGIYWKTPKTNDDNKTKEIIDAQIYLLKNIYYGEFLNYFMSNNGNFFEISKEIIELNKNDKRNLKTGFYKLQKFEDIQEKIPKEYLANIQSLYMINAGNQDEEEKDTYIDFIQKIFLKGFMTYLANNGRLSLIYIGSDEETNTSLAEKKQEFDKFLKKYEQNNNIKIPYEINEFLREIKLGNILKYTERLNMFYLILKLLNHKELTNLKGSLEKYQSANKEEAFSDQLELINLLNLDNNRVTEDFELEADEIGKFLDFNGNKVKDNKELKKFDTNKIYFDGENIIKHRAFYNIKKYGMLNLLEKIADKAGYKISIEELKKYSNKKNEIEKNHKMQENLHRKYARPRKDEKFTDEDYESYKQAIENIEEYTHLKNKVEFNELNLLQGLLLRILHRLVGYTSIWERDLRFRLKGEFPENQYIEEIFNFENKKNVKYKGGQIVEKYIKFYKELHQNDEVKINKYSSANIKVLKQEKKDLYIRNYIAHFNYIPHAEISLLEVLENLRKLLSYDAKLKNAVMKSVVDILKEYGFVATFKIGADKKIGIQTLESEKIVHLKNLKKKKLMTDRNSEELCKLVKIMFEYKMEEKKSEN
# B1: crRNA-A_GG (mature) ; target A ssRNA (ssRNA ; ssRNA)
# RNA 1: GGCCACCCCAAAAAUGAAGGGGACUAAAACAGGGGCAGAGAUGAUGACCCU
# RNA 2: GGCUCAUUUGCAGGGUUUAGCCAAAAGGGUCAUCAUCUCUGCCCCCUCUGCUGAUGCCCC
# B2: crRNA-A_GA (mature) (ssRNA)
# RNA: GACCACCCCAAAAAUGAAGGGGACUAAAACAGGGGCAGAGAUGAUGACCCU
# Assays:
# [1] = molecular target: T1, LbuC2c2-dHEPN1/dHEPN2; assay: EMSA; ssRNA A, no Mg listed in EMSA buffer, 37 C; which A variant was used not stated; conditions: tags: His6-MBP removed by TEV, label: 5'-32P, hairpin
# Experimental: (§1) The quantified data were fit to standard binding isotherms. Error bars represent the standard deviation from three independent experiments. […] Three independent experiments were conducted as described in the Methods. The gel was cropped for clarity. c, Quantified binding data from (b) were fitted to standard binding […]. Error bars represent the standard deviation from three independent experiments. […] The quantified data were fit to standard binding isotherms. Error bars represent the standard deviation from three independent experiments. Measured dissociation constants from three independent experiments (mean±sd) were 4.65±0.6 nM (LbuC2c2-WT) and 2.52±0.5 nM (LbuC2c2-R1079A). It is of note that these binding affinities differ from panel a. This difference is accounted for in a slight difference in the 5′ sequence of the guide with panel a guides beginning with a 5′-GGCCA . . . and panel d 5′-GACCA. While the native sequence guide (5′-GACCA) binds tighter to LbuC2c2, no difference is seen in the RNA targeting efficiencies of these guide variants (Extended Data FIG. 6c).
# Electrophoretic mobility-shift assays. […]
# [2] = molecular target: T2, LbuC2c2-R1079A; assay: filter; retains crRNA binding; Kd in truncated legend; conditions: tags: His6-MBP removed by TEV; label: 5'-32P; hairpin
# Experimental: as §1
# crRNA filter-binding assays. Filter binding assays was carried out in RNA processing buffer (20 mM HEPES pH 6.8, 50 mM KCl, 5 mM MgCl₂, […], 0.01% Igepal CA-630 and 5% glycerol). LbuC2c2 was incubated with radiolabeled crRNA (<0.1 nM) for 1 hr at 37° C. […]
Binder,Kd [1] [nM],binding result [2]
B1,1.62,
B2,,binds
